The values below come from PMC9482650, “Quantitative fragmentomics allow affinity mapping of interactomes” (Nature Communications, 2022).

As a reminder, the pKd is the negative decadic logarithm of the Kd, by convention in mol/L.

Among the targets are Inadl_8, Q8NI35; Inadl_3, Q8NI35; SNX27, Q96L92; DLG1_2, Q12959; GRID2IP_2, A4D2P6; Inadl_2, Q8NI35; AHNAK1, Q09666; MAGI1_1, Q96QZ7; MAGI2_4, Q86UL8.
Common to all, as to experiment: holdup assay
Parameters in all cases: key: below the threshold = too weak to quantify, mostly under pKd 3.1 to 4

The next assay addresses T1, LIN7B, Q9HAP6.
T1 sequence (Q9HAP6 88-185, limits assumed, looked up): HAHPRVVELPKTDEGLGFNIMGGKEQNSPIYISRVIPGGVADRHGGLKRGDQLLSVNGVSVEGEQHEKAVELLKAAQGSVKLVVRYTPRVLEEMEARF

Another assay concerns the target T2, SIPA1L2, Q9P2F8.
T2 sequence (Q9P2F8 945-1036, limits assumed, looked up): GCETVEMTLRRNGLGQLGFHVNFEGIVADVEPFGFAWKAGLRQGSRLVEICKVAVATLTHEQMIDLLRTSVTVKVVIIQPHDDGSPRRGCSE

The target in the next assay is T3, DFNB31_2, Q9P202.
T3 sequence (Q9P202 274-371, limits assumed, looked up): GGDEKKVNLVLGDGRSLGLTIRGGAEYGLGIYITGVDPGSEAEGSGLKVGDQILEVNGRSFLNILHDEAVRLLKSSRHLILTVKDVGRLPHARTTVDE

Another assay concerns the target T4, RADIL, Q96JH8.
T4 sequence (Q96JH8 971-1071, limits assumed, looked up): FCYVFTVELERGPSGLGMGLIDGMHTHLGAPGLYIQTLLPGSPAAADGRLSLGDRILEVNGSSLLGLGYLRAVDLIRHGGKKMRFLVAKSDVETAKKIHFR

A further assay deals with T5, APBA2_1, Q99767.
T5 sequence (Q99767 563-664, limits assumed, looked up): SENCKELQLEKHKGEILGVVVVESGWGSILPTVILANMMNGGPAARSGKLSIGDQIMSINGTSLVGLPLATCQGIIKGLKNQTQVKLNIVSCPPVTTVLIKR

The target in another assay is T6, SYNJ2BP, P57105.
T6 sequence (P57105 8-110, limits assumed, looked up): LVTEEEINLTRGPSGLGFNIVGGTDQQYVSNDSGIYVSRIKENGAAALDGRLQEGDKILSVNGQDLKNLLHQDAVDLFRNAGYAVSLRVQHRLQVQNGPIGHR

For another assay, the target named is T7, PDZD2_2, O15018.
T7 sequence (O15018 329-429, limits assumed, looked up): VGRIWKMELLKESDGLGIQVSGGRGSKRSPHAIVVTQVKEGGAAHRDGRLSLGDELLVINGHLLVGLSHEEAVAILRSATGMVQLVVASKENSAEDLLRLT

For the next assay, the target named is T8, PDZD7_3, Q9H5P4.
T8 sequence (Q9H5P4 857-944, limits assumed, looked up): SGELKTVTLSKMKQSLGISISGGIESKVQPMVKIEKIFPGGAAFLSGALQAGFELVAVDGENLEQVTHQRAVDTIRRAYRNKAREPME

For another assay, the target named is T9, APBA1_2, Q02410.
T9 sequence (Q02410 742-832, limits assumed, looked up): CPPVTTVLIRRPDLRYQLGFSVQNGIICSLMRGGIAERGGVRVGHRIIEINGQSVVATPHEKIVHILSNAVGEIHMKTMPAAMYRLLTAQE

The target of another assay is T10, DLG3_3, Q92796.
T10 sequence (Q92796 374-475, limits assumed, looked up): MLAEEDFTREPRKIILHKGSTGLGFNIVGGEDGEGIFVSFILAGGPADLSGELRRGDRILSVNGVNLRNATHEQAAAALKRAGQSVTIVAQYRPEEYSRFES

A further assay has as its target T11, TJP3_3, O95049.
T11 sequence (O95049 375-456, limits assumed, looked up): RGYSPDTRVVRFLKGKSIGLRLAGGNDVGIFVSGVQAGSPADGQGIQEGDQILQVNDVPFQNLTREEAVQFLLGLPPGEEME

The target in another assay is T12, HTRA3, P83110.
T12 sequence (P83110 354-453, limits assumed, looked up): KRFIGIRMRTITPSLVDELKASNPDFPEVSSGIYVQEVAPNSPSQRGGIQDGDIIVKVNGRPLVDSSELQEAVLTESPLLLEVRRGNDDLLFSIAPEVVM

For a further assay, the target named is T13, GRIP1_2, Q9Y3R0.
T13 sequence (Q9Y3R0 145-248, limits assumed, looked up): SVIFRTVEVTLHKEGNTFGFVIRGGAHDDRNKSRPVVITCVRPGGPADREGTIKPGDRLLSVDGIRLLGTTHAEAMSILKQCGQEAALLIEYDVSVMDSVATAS

For a further assay, the target named is T14, DFNB31_3, Q9P202.
T14 sequence (Q9P202 811-907, limits assumed, looked up): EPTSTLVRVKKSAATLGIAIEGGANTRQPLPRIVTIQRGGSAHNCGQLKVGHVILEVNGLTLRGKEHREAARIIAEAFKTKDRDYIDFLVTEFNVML

The mark [1] stands for this setting: plain residues with an end cap or a label only (N-terminal biotin on a linker: ttds).
Setting [2] is: plain residues with an end cap or a label only (N-terminal biotin on a linker: ahx).

Sequence of AHNAK1, Q09666 (Q09666 4-100): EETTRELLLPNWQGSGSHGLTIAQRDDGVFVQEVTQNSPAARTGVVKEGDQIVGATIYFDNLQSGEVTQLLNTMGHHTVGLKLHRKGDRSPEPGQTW
Sequence of GRID2IP_2, A4D2P6 (A4D2P6 272-370): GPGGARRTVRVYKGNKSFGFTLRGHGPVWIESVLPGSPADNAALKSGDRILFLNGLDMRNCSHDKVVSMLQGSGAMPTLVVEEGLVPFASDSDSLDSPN
Sequence of Inadl_8, Q8NI35 (Q8NI35 1425-1530): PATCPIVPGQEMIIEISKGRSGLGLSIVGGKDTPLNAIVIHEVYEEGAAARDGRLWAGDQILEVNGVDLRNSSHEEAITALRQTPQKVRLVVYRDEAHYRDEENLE
Sequence of MAGI2_4, Q86UL8 (Q86UL8 772-865): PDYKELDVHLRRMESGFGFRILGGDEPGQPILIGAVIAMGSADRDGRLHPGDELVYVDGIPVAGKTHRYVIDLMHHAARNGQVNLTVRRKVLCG
Sequence of DLG1_2, Q12959 (Q12959 314-412): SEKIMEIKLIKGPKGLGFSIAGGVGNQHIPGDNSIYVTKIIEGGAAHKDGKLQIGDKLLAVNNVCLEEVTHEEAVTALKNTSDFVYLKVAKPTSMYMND
Sequence of MAGI1_1, Q96QZ7 (Q96QZ7 1-106): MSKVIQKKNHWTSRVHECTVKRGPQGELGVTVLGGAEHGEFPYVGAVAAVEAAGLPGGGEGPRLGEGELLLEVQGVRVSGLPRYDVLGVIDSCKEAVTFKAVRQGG
Sequence of Inadl_3, Q8NI35 (Q8NI35 359-469): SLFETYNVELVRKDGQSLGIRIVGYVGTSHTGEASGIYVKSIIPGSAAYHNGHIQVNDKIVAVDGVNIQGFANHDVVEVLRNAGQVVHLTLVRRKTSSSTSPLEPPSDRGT
Sequence of Inadl_2, Q8NI35 (Q8NI35 238-335): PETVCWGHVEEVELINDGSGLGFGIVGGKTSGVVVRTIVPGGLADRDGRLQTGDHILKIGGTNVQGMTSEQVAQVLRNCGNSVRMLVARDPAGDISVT

Regarding STLTIFETAL [ABCC4, O15439], the pKd is 4.44 in the assay with LIN7B, Q9HAP6 (setting [1]); “below the threshold” with Inadl_8, Q8NI35 (setting [1]); 4 in the assay with Inadl_3, Q8NI35 (setting [1]); 5.85 with SNX27, Q96L92 (setting [1]); “below the threshold” with SIPA1L2, Q9P2F8 (setting [1]); “below the threshold” in the assay with DFNB31_2, Q9P202 (setting [1]). In addition, the pKd was 3.56 with RADIL, Q96JH8 (setting [1]); 4.57 with DLG1_2, Q12959 (setting [1]); 4.36 with GRID2IP_2, A4D2P6 (setting [1]); “below the threshold” with APBA2_1, Q99767 (setting [1]); 5.56 in the assay with SYNJ2BP, P57105 (setting [1]); “below the threshold” with Inadl_2, Q8NI35 (setting [1]). Besides, the pKd entry is “below the threshold” with AHNAK1, Q09666 (setting [1]); 3.65 in the assay with PDZD2_2, O15018 (setting [1]); 5.27 in the assay with PDZD7_3, Q9H5P4 (setting [1]); 4.03 with APBA1_2, Q02410 (setting [1]); 3.83 in the assay with DLG3_3, Q92796 (setting [1]); “below the threshold” with TJP3_3, O95049 (setting [1]). The pKd result in the assay with MAGI1_1, Q96QZ7 (setting [1]) is “below the threshold”; with HTRA3, P83110 (setting [1]) it was “below the threshold”; in the assay with GRIP1_2, Q9Y3R0 (setting [1]) it was “below the threshold”; with DFNB31_3, Q9P202 (setting [1]), “below the threshold”; with MAGI2_4, Q86UL8 (setting [1]) it was 3.54.
With QSARYRDTEL [TJP2, Q9UDY2], the pKd result is “below the threshold” with LIN7B, Q9HAP6 (setting [1]); “below the threshold” in the assay with Inadl_8, Q8NI35 (setting [1]); “below the threshold” in the assay with Inadl_3, Q8NI35 (setting [1]); 4.69 in the assay with SNX27, Q96L92 (setting [1]); “below the threshold” with SIPA1L2, Q9P2F8 (setting [1]); “below the threshold” with DFNB31_2, Q9P202 (setting [1]). Also, the negative-log Kd (pKd) result was “below the threshold” with RADIL, Q96JH8 (setting [1]); 3.77 with DLG1_2, Q12959 (setting [1]); “below the threshold” in the assay with GRID2IP_2, A4D2P6 (setting [1]); “below the threshold” with APBA2_1, Q99767 (setting [1]); 5.1 with SYNJ2BP, P57105 (setting [1]); “below the threshold” in the assay with Inadl_2, Q8NI35 (setting [1]). In addition, the pKd with AHNAK1, Q09666 (setting [1]) was 3.75; in the assay with PDZD2_2, O15018 (setting [1]), “below the threshold”; with PDZD7_3, Q9H5P4 (setting [1]) it was 3.69; with APBA1_2, Q02410 (setting [1]), “below the threshold”; in the assay with DLG3_3, Q92796 (setting [1]), “below the threshold”; in the assay with TJP3_3, O95049 (setting [1]), 3.55. The pKd is 3.55 with MAGI1_1, Q96QZ7 (setting [1]); 3.54 in the assay with HTRA3, P83110 (setting [1]); “below the threshold” with GRIP1_2, Q9Y3R0 (setting [1]); “below the threshold” in the assay with DFNB31_3, Q9P202 (setting [1]); 3.74 with MAGI2_4, Q86UL8 (setting [1]).
As for TEAKLTETNA [MYO18A, Q92614], the pKd result is “below the threshold” in the assay with LIN7B, Q9HAP6 (setting [2]); “below the threshold” in the assay with Inadl_8, Q8NI35 (setting [2]); “below the threshold” in the assay with Inadl_3, Q8NI35 (setting [2]); “below the threshold” with SNX27, Q96L92 (setting [2]); “below the threshold” with SIPA1L2, Q9P2F8 (setting [2]); “below the threshold” in the assay with DFNB31_2, Q9P202 (setting [2]). For the same molecule, the pKd entry is on record as “below the threshold” in the assay with RADIL, Q96JH8 (setting [2]); “below the threshold” in the assay with DLG1_2, Q12959 (setting [2]); “below the threshold” with GRID2IP_2, A4D2P6 (setting [2]); “below the threshold” in the assay with APBA2_1, Q99767 (setting [2]); “below the threshold” with SYNJ2BP, P57105 (setting [2]); “below the threshold” in the assay with Inadl_2, Q8NI35 (setting [2]). For the same molecule, the pKd result in the assay with AHNAK1, Q09666 (setting [2]) is listed as “below the threshold”; in the assay with PDZD2_2, O15018 (setting [2]) it was “below the threshold”; with PDZD7_3, Q9H5P4 (setting [2]), “below the threshold”; in the assay with APBA1_2, Q02410 (setting [2]), “below the threshold”; with DLG3_3, Q92796 (setting [2]) it was “below the threshold”; with TJP3_3, O95049 (setting [2]), “below the threshold”. In addition, the pKd entry with MAGI1_1, Q96QZ7 (setting [2]) is “below the threshold”; with HTRA3, P83110 (setting [2]), “below the threshold”; with GRIP1_2, Q9Y3R0 (setting [2]) it was “below the threshold”; with DFNB31_3, Q9P202 (setting [2]) it was “below the threshold”; in the assay with MAGI2_4, Q86UL8 (setting [2]) it was “below the threshold”.
IDNDTESTAL [ARHGAP17, Q68EM7]: the pKd result with LIN7B, Q9HAP6 (setting [1]) was “below the threshold”; in the assay with Inadl_8, Q8NI35 (setting [1]), “below the threshold”; in the assay with Inadl_3, Q8NI35 (setting [1]), “below the threshold”; with SNX27, Q96L92 (setting [1]), 4.97; with SIPA1L2, Q9P2F8 (setting [1]), “below the threshold”; in the assay with DFNB31_2, Q9P202 (setting [1]), “below the threshold”. Further, the pKd result in the assay with RADIL, Q96JH8 (setting [1]) is “below the threshold”; in the assay with DLG1_2, Q12959 (setting [1]), “below the threshold”; with GRID2IP_2, A4D2P6 (setting [1]) it was 4.87; in the assay with APBA2_1, Q99767 (setting [1]) it was “below the threshold”; with SYNJ2BP, P57105 (setting [1]), 4.01; with Inadl_2, Q8NI35 (setting [1]), “below the threshold”. Further, the pKd result was “below the threshold” in the assay with AHNAK1, Q09666 (setting [1]); 4.11 in the assay with PDZD2_2, O15018 (setting [1]); 4.25 in the assay with PDZD7_3, Q9H5P4 (setting [1]); 3.89 with APBA1_2, Q02410 (setting [1]); “below the threshold” with DLG3_3, Q92796 (setting [1]); “below the threshold” in the assay with TJP3_3, O95049 (setting [1]). The pKd result in the assay with MAGI1_1, Q96QZ7 (setting [1]) is listed as “below the threshold”; in the assay with HTRA3, P83110 (setting [1]) it was “below the threshold”; in the assay with GRIP1_2, Q9Y3R0 (setting [1]) it was “below the threshold”; with DFNB31_3, Q9P202 (setting [1]), “below the threshold”; with MAGI2_4, Q86UL8 (setting [1]), “below the threshold”.
